Results on 139 substances are retold here after the supplement of paper PMC12042874.

± gives the uncertainty stated by the source.

This data set is described as follows: amyloid nucleation score (Sup35N fusion, yeast selection) (log enrichment); library NNK1; higher = more nucleation; inactive = no reads after selection. Summed up: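 The nucleation score equals the log enrichment of output over input reads from DiMSum, centred on the mode score of non-aggregating sequences. It was computed only for sequences with 100 or more input reads. The reads came from Illumina sequencing of plasmid inserts from psi-negative yeast expressing Sup35N fused to peptides of 20 random codons, induced with 100 μM copper sulfate for 24 hours and grown 7 days at 30°C without adenine and uracil.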
Substance IFFFKEYCFMQVIRGFVCN gave an amyloid nucleation score of -0.265 ± 1.1.
The result for MGGVMAVLFRIMLGVIF reads “inactive”; that for FSLCDSKSKWLLYCSGSFNL, 2.69 ± 0.14; that for PIIILFL, 1.15 ± 0.54.
VRSGDCYRSNSKSVFVMAIR: the amyloid nucleation score stood at 0.617 ± 0.49.
The result for GLSGPRRQMSYMGWQRVRF reads -0.247 ± 1.1; that for VYKRFSTTMCLMTSSEWVDS, 2.45 ± 0.068; that for VRGLWFYN, 0.088 ± 0.72.
Regarding DLIQLGLGQVSDPLGTWWSG, the amyloid nucleation score turned out to be 2.29 ± 0.3.
The value for YSRLSCWYYAPGVSLGVIKW was 0.483 ± 0.48; that for AFMSRVPFSHCIKSGGLQGT was 0.19 ± 0.49; that for GNSYLILNGRSYSRIFARSS was “inactive”.
The value for RCSLIPGRLPRNRFVRPDYC was -1.53 ± 1.3.
KYDRCYYSRMNPSCVYIPYS: the amyloid nucleation score amounted to 2.47 ± 0.4.
Consider LFNILASFSYFAFYYLLLLS, for which the amyloid nucleation score is -0.492 ± 0.8.
The substance MMLCSYKWVF showed an amyloid nucleation score of 0.1 ± 0.24.
On to FMLVAG, for which the amyloid nucleation score was 0.746 ± 0.53.
The value for HSASQLPYYQY was 0.498 ± 0.97; that for WLFSPNVFVNFCFG was 6.913 ± 0.055.
As for ECMGGVAIARNFATI, the amyloid nucleation score was -1.11 ± 2.7.
For SMGLYRDLRLKCFC, the amyloid nucleation score was 1.02 ± 0.47.
The substance RVEKCWAMTDKCIRHRFLTS yielded an amyloid nucleation score of 0.774 ± 0.48.
The value for NLMFSNGSNRSGF was 0.142 ± 0.38.
CITFMVRYGLRLHR gave an amyloid nucleation score of 0.089 ± 0.58.
The result for FTRKEVVPMWDKEDRVCIGD reads 0.02 ± 0.74; that for WSRHELWWVPCCDRMLVLGH, 0.746 ± 0.9.
Consider LCSFKFSVRPLCKKRFKVRV, for which the amyloid nucleation score was 0.099 ± 0.34.
Take LRNSHNVGEQFCISVRDSLG: the amyloid nucleation score was 0.007 ± 0.69.
Substance TSWVEAPSVSSFGWFLSVHL returned an amyloid nucleation score of 1.91 ± 0.12.
Turning to GYHSFGLVHEGETGK, the amyloid nucleation score result was “inactive”.
The result for WFNRSICSPNSHNDSSRFNQ reads “inactive”; that for SSRLVSFFGHSNTVLRMFNW, “inactive”.
The result for VYFIVVVKGRSGLFMLSFGD reads -0.997 ± 1.4; that for FILSCISPPYVHCFYCLMFS, 0.854 ± 0.9.
For the substance RFVLWYYDY, the amyloid nucleation score is 3.12 ± 0.076.
The value for DLSSESHVFLCVAL was -0.711 ± 2.1.
On to EVTDVRLS, for which the amyloid nucleation score was determined as 0.862 ± 0.62.
The result for LTYLNMALVCRFFYVFRHDW reads 0.799 ± 0.57.
LLLYLTLAIGSRLCRELPQR had an amyloid nucleation score of 0.523 ± 0.43.
The result for LSMPGTTCIFYYRLFLVLGE reads -0.043 ± 0.31; that for RVNLFSPYAWCIQIGSHHYG, 7.444 ± 0.047; that for EVVEWSLTKNCLFHALFIWV, -0.142 ± 0.3.
The result for ACGRLFDYVAFHRLLDQTHW reads -0.617 ± 0.65; that for RILAIIVGVSAVSKKSNNEL, 0.913 ± 0.48; that for RWGGDALNAWHASDSSVGLR, -1.01 ± 0.73.
The substance DFECILLGCFGLDLPVTGIR came in with an amyloid nucleation score of 2.27 ± 0.16.
Take HHAGPSG: the amyloid nucleation score came to 0.72 ± 0.46.
As for MLGKNSSCESNMEYVFRSCL, the amyloid nucleation score is 0.244 ± 0.23.
The result for RCRIWEEIGPIGKGERSRGC reads 0.405 ± 0.45; that for NPEILCRLKIPFSSCLDSAS, 0.341 ± 0.61; that for CGDMKRSHGCYFGPRNRFCW, 0.517 ± 0.47.
The result for FYVVRGHGHCWM reads 0.68 ± 0.33.
Turning to ILMHSIAVFTRGIGRIRLAS, the amyloid nucleation score worked out at 0.913 ± 0.68.
For the substance FVCWVGTGLMIRVAIDQCWR, the amyloid nucleation score was -0.202 ± 0.31.
For the substance SCYMHVR, the amyloid nucleation score turned out to be 0.372 ± 0.52.
KWILVRSLESIHKPTL displayed an amyloid nucleation score of 0.174 ± 0.89.
The result for DVFRML reads “inactive”; that for YLMKRSWTGMIGLGTQVKSS, 0.9 ± 0.58.
The value for ADAGGSQVWAYQAQIICPKW was -0.63 ± 1.3; that for LFDSLEAVYRSYGKSWACYI was -1.63 ± 0.9.
In turn, IGTGLLS gave an amyloid nucleation score of 0.451 ± 0.62.
The result for TWRCQLIYTCGNVSRKPVLL reads -0.148 ± 0.5.
VHSCYLVLARQWNVIKISHI registered an amyloid nucleation score of 0.039 ± 0.43.
The value for HVLDRQLSPMDSNSYGCVAT was 0.208 ± 0.28; that for TNISSTGFAIYWLCN was 7.16 ± 0.049.
For LNSLPLSTVLYSFRVMYWMY, the amyloid nucleation score result was “inactive”.
The value for ISEKRISMCGIRNKYIWGHG was -0.953 ± 1.1.
The value for GPISLWSPLRSVN was 0.444 ± 0.84; that for VDRGCKYKQLMREVVSEHVI was 0.753 ± 0.63.
GRFRSTTVWFWVLDVLYGCS yielded an amyloid nucleation score of 0.547 ± 0.29.
The value for LYFRIGYSMLIATDVGFGDL was -2.74 ± 1.8; that for GKQHSLS was -1.44 ± 1.9; that for ISFPSSDYGGGSAPVEGWLG was 0.47 ± 1.2.
The value for SDYIWWRLCGGIKCQGGELG was -1.74 ± 2.1; that for RVIGE was 1.36 ± 0.49.
In the case of YYFRHMLKDNHLVIV, the amyloid nucleation score entry was “inactive”.
LCAREFVDCEAILVRLWFVY had an amyloid nucleation score of -1.18 ± 1.1.
In turn, TIRVQHYCVDRGQESVLMGS returned an amyloid nucleation score of -0.524 ± 0.51.
The result for SLMSLLLNFVNLTNNNLSPF reads -2.99 ± 1.6; that for GSRLCRMSSSMIGSLRVIWG, -0.146 ± 0.25; that for DALYLFWVMGRMVRDRV, 0 ± 0.63.
The result for WSNGF reads 1.89 ± 0.45.
The value for FYEASDRGERLEQKLKLTVL was 1.51 ± 0.49; that for VRFIFSRSIGLQ was -0.361 ± 0.42.
RWESKRRRRGRYGFWSVSVR showed an amyloid nucleation score of 0.129 ± 0.35.
In the case of YLIWLLGFANILYHYTL, the amyloid nucleation score entry is “inactive”.
In the case of VWYFISTYCWDRPKVILSGV, the amyloid nucleation score is -1.39 ± 1.9.
The value for GVLEVIYVSLFRGRAESVFR was 1.67 ± 0.34.
With HSRRCYNESS, the amyloid nucleation score came to 1.7 ± 0.55.
Consider TCISTCYD, for which the amyloid nucleation score is -0.183 ± 0.9.
The value for KVAHCCSDMYSWRVGKMMSM was 0.024 ± 0.79; that for LTSCLLPFDPLSNDNYKGVW was 1.78 ± 0.65; that for SFAQLMGGAVSHYVFLPWNA was -0.525 ± 0.85.
The value for HANCG was -0.155 ± 0.59; that for MSLMSRDVVMHIGMSWYSRG was 4.21 ± 0.12.
The value for GMRVMRYYLPRGNQKFGESR was 0.823 ± 0.63; that for NKWLRCARGTVHWYAAIVGH was -0.942 ± 1.1.
The substance LFCDPAFGKHLCFRNAFCWF displayed an amyloid nucleation score of 0.255 ± 0.23.
Substance HYRFCYCHSTKS registered an amyloid nucleation score of 1.76 ± 0.42.
ISNGIYISKEGFHEWSNRH displayed an amyloid nucleation score of 4.18 ± 0.064.
The result for SNISSHQEASWRAYRFSESV reads 0.147 ± 0.57; that for SNFVALYDRYNCFSVCIYCG, 5.78 ± 0.063; that for MNNCKGTI, -0.679 ± 0.79.
On to ERITIFVSVRTGKLRYLWPT, for which the amyloid nucleation score is -0.837 ± 2.4.
The value for RKFSNLVGRYALFICLKSLT was -0.28 ± 0.3; that for AAKRSETAP was -0.308 ± 0.43; that for KLIFKRSFNRMDLSSLCYFR was -0.471 ± 0.39.
The result for FYYYSSCHYWYC reads -0.13 ± 0.79; that for WLNRMFFGDLCDMAIWKMCM, -0.217 ± 0.72.
The substance MWYVHHCQGSVTLLARGRLC displayed an amyloid nucleation score of 0.886 ± 1.
The result for MRCGAL reads 0.2 ± 1.2; that for VRSDAVKEARISFCLRSKRF, 0.423 ± 1.4.
Take VLVVTALLSRV: the amyloid nucleation score was 1.67 ± 0.22.
Substance LSEDVHRTVVRYWMKSRR showed an amyloid nucleation score of 1.74 ± 0.31.
The value for VLATGVCACTGVYTFMTWWV was -0.455 ± 0.47; that for DNVLALDGWNLINCLTT was 0.155 ± 0.37.
As to MIWAEQCVMWPGACVMVIK, the amyloid nucleation score turned out to be 4.64 ± 0.09.
The value for FFVGEDRACSRYSLTTTITG was 0.554 ± 0.64; that for CLIYYVYSRWIIPMYITGRR was -0.27 ± 0.81.
For LNMHSR, the amyloid nucleation score entry is “inactive”.
The result for FLNGKSGHAVVKLEGLMTNW reads 0.447 ± 0.32.
Take ITMNVRSSYGLSVIMIELGL: the amyloid nucleation score is 1.02 ± 0.76.
The value for MVVQRLF was -0.54 ± 0.78; that for AGKCGIQWACEM was 0.194 ± 0.69.
The value for GFSEKQNY was 0.383 ± 0.54; that for CDNSLDSIWFVSVSWN was 1.16 ± 0.69.
For the substance PLAMNSFVIVIDGRLHVLGD, the amyloid nucleation score was determined as 4.72 ± 0.12.
The result for TIRVLDRTFVS reads “inactive”; that for VGFGPVWTRPYNTWYNYGKS, 0.514 ± 0.66.
As for SYVRLFERFWVNFRSHMGNC, the amyloid nucleation score stood at 0.014 ± 0.52.
On to FDSGLETTNIKMRYMVVYLR, for which the amyloid nucleation score is -0.608 ± 0.38.
The substance QTGKRYGTFLGYDGLEGRPD had an amyloid nucleation score of -0.502 ± 0.55.
Substance CMSVVNLRCPDRTLVSLLPY registered an amyloid nucleation score of -0.326 ± 1.1.
The value for RRGTSFLQIYLACSHVQTSH was 4.56 ± 0.11; that for HWVLDWQAQVRMPRNSVSGL was “inactive”.
The result for VRLKVKCIMIH reads 0.962 ± 0.72.
On to SGMYSMYQDKT, for which the amyloid nucleation score is -0.716 ± 0.5.
The substance NVLVAVFLFYVGPIGVAHCY displayed an amyloid nucleation score of 1.12 ± 0.37.
The result for RHPSWLYDVFNIVLVITACW reads -0.062 ± 0.97.
